Experiments:
[1] = biological target: integrin αvβ6 on NIH3T3β6 cells (NIH3T3 cells transfected with β6); experiment: FACS on NIH3T3β6 cells, geometric MFI against antibody concentration
biotinylated αvβ6 = experiment: inhibition of biotinylated αvβ6 binding to plate-coated LAP, streptavidin-HRP

Binder	EC50 relative to chimeric antibody (ratio to chimeric antibody) [1]	IC50 relative to chimeric antibody (ratio to chimeric antibody) (biotinylated αvβ6)
humanized 1A8 antibody VH1/Vκ1 (antibody, IgG1, V domains shown) VH: QVQFVQSGPELKKPGASVKVSCKGSSYTFTDYTMHWVKLAHAKTLEWIGVIDTYYGKTNYNQKFEGRATMTVDKSSSTAYMELARLRSEDSAVYYCARGGFRRGDRPSLRYAMDSWGQGTSVTVSS VL: DIVLTQSPDSLAVSLGERATINCRASQSVSISTYSYIHWFQQKPGQPPKLLIKYASNLESGVPDRFSGSGSGTDFTLNIHPVEEEDVGIYYCQHSWEIPYTFGGGTKVEIK	1.13	1.02
humanized 1A8 antibody VH3/Vκ3 (antibody, IgG1, V domains shown) VH: QVQLVQSGAEVKKPGASVKVSCKGSSYTFTDYTMHWVRLASAKTLEWIGVIDTYYGKTNYNQKFEGRATMTVDKSSSTAYMELSSLRSEDTAVYYCARGGFRRGDRPSLRYAMDSWGQGTLVTVSS VL: DIVMTQSPDSLAVSLGERATINCRASQSVSISTYSYIHWFQQKPGQPPKLLIKYASNLESGVPDRFSGSGSGTDFTLKISRVEAEDVGIYYCQHSWEIPYTFGGGTKVEIK	2.41	1.2
humanized 1A8 antibody VH2/Vκ2 (antibody, IgG1, V domains shown) VH: QVQLVQSGAEVKKPGASVKVSCKGSSYTFTDYTMHWVKLASAKTLEWIGVIDTYYGKTNYNQKFEGRATMTVDKSSSTAYMELSSLRSEDTAVYYCARGGFRRGDRPSLRYAMDSWGQGTLVTVSS VL: DIVLTQSPDSLAVSLGERATINCRASQSVSISTYSYIHWFQQKPGQPPKLLIKYASNLESGVPDRFSGSGSGTDFTLKISRVEEEDVGIYYCQHSWEIPYTFGGGTKVEIK	2.4	1.32
humanized 1A8 antibody VH1/Vκ2 (antibody, IgG1, V domains shown) VH: QVQFVQSGPELKKPGASVKVSCKGSSYTFTDYTMHWVKLAHAKTLEWIGVIDTYYGKTNYNQKFEGRATMTVDKSSSTAYMELARLRSEDSAVYYCARGGFRRGDRPSLRYAMDSWGQGTSVTVSS VL: DIVLTQSPDSLAVSLGERATINCRASQSVSISTYSYIHWFQQKPGQPPKLLIKYASNLESGVPDRFSGSGSGTDFTLKISRVEEEDVGIYYCQHSWEIPYTFGGGTKVEIK	1.07	1.19
humanized 1A8 antibody VH2/Vκ1 (antibody, IgG1, V domains shown) VH: QVQLVQSGAEVKKPGASVKVSCKGSSYTFTDYTMHWVKLASAKTLEWIGVIDTYYGKTNYNQKFEGRATMTVDKSSSTAYMELSSLRSEDTAVYYCARGGFRRGDRPSLRYAMDSWGQGTLVTVSS VL: DIVLTQSPDSLAVSLGERATINCRASQSVSISTYSYIHWFQQKPGQPPKLLIKYASNLESGVPDRFSGSGSGTDFTLNIHPVEEEDVGIYYCQHSWEIPYTFGGGTKVEIK	3	1.48
humanized 1A8 antibody VH2/Vκ3 (antibody, IgG1, V domains shown) VH: QVQLVQSGAEVKKPGASVKVSCKGSSYTFTDYTMHWVKLASAKTLEWIGVIDTYYGKTNYNQKFEGRATMTVDKSSSTAYMELSSLRSEDTAVYYCARGGFRRGDRPSLRYAMDSWGQGTLVTVSS VL: DIVMTQSPDSLAVSLGERATINCRASQSVSISTYSYIHWFQQKPGQPPKLLIKYASNLESGVPDRFSGSGSGTDFTLKISRVEAEDVGIYYCQHSWEIPYTFGGGTKVEIK	2.46	0.98

Other lines, results leading:

EC50 relative to chimeric antibody (ratio to chimeric antibody) [1]	IC50 relative to chimeric antibody (ratio to chimeric antibody) (biotinylated αvβ6)	Binder
3.57	1.93	humanized 1A8 antibody VH4/Vκ1 (antibody, IgG1, V domains shown) VH: QVQLVQSGAEVKKPGASVKVSCKGSSYTFTDYTMHWVRLASAKTLEWIGVIDTYYGKTNYNQKFEGRATITVDKSSSTAYMELSSLRSEDTAVYYCARGGFRRGDRPSLRYAMDSWGQGTLVTVSS VL: DIVLTQSPDSLAVSLGERATINCRASQSVSISTYSYIHWFQQKPGQPPKLLIKYASNLESGVPDRFSGSGSGTDFTLNIHPVEEEDVGIYYCQHSWEIPYTFGGGTKVEIK
1.04	1.05	humanized 1A8 antibody VH1/Vκ3 (antibody, IgG1, V domains shown) VH: QVQFVQSGPELKKPGASVKVSCKGSSYTFTDYTMHWVKLAHAKTLEWIGVIDTYYGKTNYNQKFEGRATMTVDKSSSTAYMELARLRSEDSAVYYCARGGFRRGDRPSLRYAMDSWGQGTSVTVSS VL: DIVMTQSPDSLAVSLGERATINCRASQSVSISTYSYIHWFQQKPGQPPKLLIKYASNLESGVPDRFSGSGSGTDFTLKISRVEAEDVGIYYCQHSWEIPYTFGGGTKVEIK
3.24	2.3	humanized 1A8 antibody VH4/Vκ2 (antibody, IgG1, V domains shown) VH: QVQLVQSGAEVKKPGASVKVSCKGSSYTFTDYTMHWVRLASAKTLEWIGVIDTYYGKTNYNQKFEGRATITVDKSSSTAYMELSSLRSEDTAVYYCARGGFRRGDRPSLRYAMDSWGQGTLVTVSS VL: DIVLTQSPDSLAVSLGERATINCRASQSVSISTYSYIHWFQQKPGQPPKLLIKYASNLESGVPDRFSGSGSGTDFTLKISRVEEEDVGIYYCQHSWEIPYTFGGGTKVEIK
2.96	1.74	humanized 1A8 antibody VH4/Vκ3 (antibody, IgG1, V domains shown) VH: QVQLVQSGAEVKKPGASVKVSCKGSSYTFTDYTMHWVRLASAKTLEWIGVIDTYYGKTNYNQKFEGRATITVDKSSSTAYMELSSLRSEDTAVYYCARGGFRRGDRPSLRYAMDSWGQGTLVTVSS VL: DIVMTQSPDSLAVSLGERATINCRASQSVSISTYSYIHWFQQKPGQPPKLLIKYASNLESGVPDRFSGSGSGTDFTLKISRVEAEDVGIYYCQHSWEIPYTFGGGTKVEIK
2.86	1.07	humanized 1A8 antibody VH3/Vκ1 (antibody, IgG1, V domains shown) VH: QVQLVQSGAEVKKPGASVKVSCKGSSYTFTDYTMHWVRLASAKTLEWIGVIDTYYGKTNYNQKFEGRATMTVDKSSSTAYMELSSLRSEDTAVYYCARGGFRRGDRPSLRYAMDSWGQGTLVTVSS VL: DIVLTQSPDSLAVSLGERATINCRASQSVSISTYSYIHWFQQKPGQPPKLLIKYASNLESGVPDRFSGSGSGTDFTLNIHPVEEEDVGIYYCQHSWEIPYTFGGGTKVEIK

— patent US20160031992A1
